Tests used:
Conditions in all cases: remark: other sources report otherwise
[1] = target: myc-LRRK2 (human wild-type full-length leucine rich repeat kinase 2, myc-tagged) (human) (UniProt Q5S007); experiment: native gel or EMSA
[2] = target: myc-LRRK2 (human wild-type full-length leucine rich repeat kinase 2, myc-tagged) (human) (UniProt Q5S007); experiment: glycerol velocity gradient
[3] = target: myc-LRRK2 (human wild-type full-length leucine rich repeat kinase 2, myc-tagged) (human) (UniProt Q5S007); experiment: SEC

stoichiometry N [1]: 2
stoichiometry N [2]: 2
stoichiometry N [3]: 2
Substance: myc-LRRK2 (human wild-type full-length leucine rich repeat kinase 2, myc-tagged), Q5S007 1-2527

Reference: PMC2987719
